This is an account of results in patent US20180258408A1.

Several values for one entry are separate records, joined by “and”; a condition that tells them apart may be missing. Equal values may be shown once.

The target of this experiment is M6P receptors on MEF-1 fibroblasts. In words: cell-based or functional assay.

B1: sulfamidase modified with R1 oxidation at 22 °C, 120 min, 10 mmol/L sodium meta-periodate (enzyme)
chain: RPRNALLLLADDGGFESGAYNNSAIATPHLDALARRSLLFRNAFTSVSSCSPSRASLLTGLPQHQNGMYGLHQDVHHFNSFDKVRSLPLLLSQAGVRTGIIGKKHVGPETVYPFDFAYTEENGSVLQVGRNITRIKLLVRKFLQTQDDRPFFLYVAFHDPHRCGHSQPQYGTFCEKFGNGESGMGRIPDWTPQAYDPLDVLVPYFVPNTPAARADLAAQYTTVGRMDQGVGLVLQELRDAGVLNDTLVIFTSDNGIPFPSGRTNLYWPGTAEPLLVSSPEHPKRWGQVSEAYVSLLDLTPTILDWFSIPYPSYAIFGSKTIHLTGRSLLPALEAEPLWATVFGSQSHHEVTMSYPMRSVQHRHFRLVHNLNFKMPFPIDQDFYVSPTFQDLLNRTTAGQPTGWYKDLRHYYYRARWELYDRSRDPHETQNLATDPRFAQLLEMLRDQLAKWQWETHDPWVCAPDGVLEEKLSPQCQPLHNEL
modifications: N-glycans oxidised with periodate (22 °C, 120 min, 10 mmol/L), then reduced with borohydride as in new method 1
Molecule B1 returned a Cell uptake % of unmodified sulfamidase uptake (% of unmodified sulfamidase uptake) of 8.5.

B2: sulfamidase modified with R1 oxidation at 22 °C, 30 min, 40 mmol/L sodium meta-periodate (enzyme)
chain: B1 chain
modifications: N-glycans oxidised with periodate (22 °C, 30 min, 40 mmol/L), then reduced with borohydride as in new method 1
Turning to B2, the Cell uptake % of unmodified sulfamidase uptake (% of unmodified sulfamidase uptake) came out at 2.7.

B3: sulfamidase modified according to new method 4 (enzyme)
chain: B1 chain
modifications: N-glycans oxidised with 20 mM sodium meta-periodate (0 °C, 120 min) and reduced with 10 mM sodium borohydride; FGly50 about 11% converted to Ser
For the molecule B3, the specific activity in cell homogenate (endocytosis in MEF-1 cells) (% of unmodified recombinant sulfamidase) is less than 10.

B4: sulfamidase modified with R1 oxidation at 0 °C, 30 min, 40 mmol/L sodium meta-periodate (enzyme)
chain: B1 chain
modifications: N-glycans oxidised with periodate (0 °C, 30 min, 40 mmol/L), then reduced with borohydride as in new method 1
With B4, the Cell uptake % of unmodified sulfamidase uptake (% of unmodified sulfamidase uptake) was determined as 3.8.

B5: sulfamidase modified with R1 oxidation at 0 °C, 120 min, 10 mmol/L sodium meta-periodate (enzyme)
chain: B1 chain
modifications: N-glycans oxidised with periodate (0 °C, 120 min, 10 mmol/L), then reduced with borohydride as in new method 1
The molecule B5 showed a Cell uptake % of unmodified sulfamidase uptake (% of unmodified sulfamidase uptake) of 9.5.

B6: sulfamidase modified with R1 oxidation at 0 °C, 120 min, 40 mmol/L sodium meta-periodate (enzyme)
chain: B1 chain
modifications: N-glycans oxidised with periodate (0 °C, 120 min, 40 mmol/L), then reduced with borohydride as in new method 1
On to B6, for which the Cell uptake % of unmodified sulfamidase uptake (% of unmodified sulfamidase uptake) turned out to be 3.5.

B7: sulfamidase modified with R1 oxidation at 22 °C, 30 min, 10 mmol/L sodium meta-periodate (enzyme)
chain: B1 chain
modifications: N-glycans oxidised with periodate (22 °C, 30 min, 10 mmol/L), then reduced with borohydride as in new method 1
For B7, the Cell uptake % of unmodified sulfamidase uptake (% of unmodified sulfamidase uptake) came out at 7.1.

B8: sulfamidase modified according to the known method (WO 2008/109677) (enzyme)
chain: B1 chain
modifications: N-glycans oxidised with 20 mM sodium meta-periodate (6.5 h) and reduced with 100 mM sodium borohydride (overnight); FGly50 about 56% converted to Ser; Met184 and Met443 almost completely oxidised
Turning to B8, the specific activity in cell homogenate (endocytosis in MEF-1 cells) (% of unmodified recombinant sulfamidase) is less than 10.

B9: sulfamidase modified with R1 oxidation at 22 °C, 120 min, 40 mmol/L sodium meta-periodate (enzyme)
chain: B1 chain
modifications: N-glycans oxidised with periodate (22 °C, 120 min, 40 mmol/L), then reduced with borohydride as in new method 1
B9 yielded a Cell uptake % of unmodified sulfamidase uptake (% of unmodified sulfamidase uptake) of 3.5.

B10: sulfamidase modified with R1 oxidation at 8 °C, 60 min, 20 mmol/L sodium meta-periodate (enzyme)
chain: B1 chain
modifications: N-glycans oxidised with periodate (8 °C, 60 min, 20 mmol/L), then reduced with borohydride as in new method 1
Consider B10, for which the Cell uptake % of unmodified sulfamidase uptake (% of unmodified sulfamidase uptake) is 6.1 and 6.5.

B11: sulfamidase modified according to new method 1 (enzyme)
chain: B1 chain
modifications: N-glycans oxidised with 20 mM sodium meta-periodate (0 °C, 120 min) and reduced with 50 mM sodium borohydride (0 °C, 120 min); FGly50 about 45% converted to Ser
For B11, the specific activity in cell homogenate (endocytosis in MEF-1 cells) (% of unmodified recombinant sulfamidase) was less than 10.

B12: sulfamidase modified with R1 oxidation at 0 °C, 30 min, 10 mmol/L sodium meta-periodate (enzyme)
chain: B1 chain
modifications: N-glycans oxidised with periodate (0 °C, 30 min, 10 mmol/L), then reduced with borohydride as in new method 1
As for B12, the Cell uptake % of unmodified sulfamidase uptake (% of unmodified sulfamidase uptake) was determined as 12.
